Test results reported in US7211424B1, “Mammalian Subtilisin/kexin isozyme SKI-1: a proprotein convertase with a unique cleavage specificity” (Institut de Recherches Cliniques de Montreal, priority 1999, dated 2007).
Like-named read-outs stand apart in the source and are kept apart here. Where no end group is shown, it is not given here.

Tests used:
[1] = system: endogenous furin-like enzyme(s); assay: Ex vivo proBDNF processing in COS-7 cells: 14 kDa BDNF; type: cell-based
[2] = target: T1, SKI-1 (Homo sapiens, UniProt Q14703); type: cell-based; design: The VV recombinant of full-length hSKI-1 has been described (10); expressed in transfected cells; host or cells: COS-7 cells co-infected with vv:BDNF and vv:SKI-1 (with vv:WT, vv:PIT or vv:PDX)
T1 sequence (Q14703 187-1052): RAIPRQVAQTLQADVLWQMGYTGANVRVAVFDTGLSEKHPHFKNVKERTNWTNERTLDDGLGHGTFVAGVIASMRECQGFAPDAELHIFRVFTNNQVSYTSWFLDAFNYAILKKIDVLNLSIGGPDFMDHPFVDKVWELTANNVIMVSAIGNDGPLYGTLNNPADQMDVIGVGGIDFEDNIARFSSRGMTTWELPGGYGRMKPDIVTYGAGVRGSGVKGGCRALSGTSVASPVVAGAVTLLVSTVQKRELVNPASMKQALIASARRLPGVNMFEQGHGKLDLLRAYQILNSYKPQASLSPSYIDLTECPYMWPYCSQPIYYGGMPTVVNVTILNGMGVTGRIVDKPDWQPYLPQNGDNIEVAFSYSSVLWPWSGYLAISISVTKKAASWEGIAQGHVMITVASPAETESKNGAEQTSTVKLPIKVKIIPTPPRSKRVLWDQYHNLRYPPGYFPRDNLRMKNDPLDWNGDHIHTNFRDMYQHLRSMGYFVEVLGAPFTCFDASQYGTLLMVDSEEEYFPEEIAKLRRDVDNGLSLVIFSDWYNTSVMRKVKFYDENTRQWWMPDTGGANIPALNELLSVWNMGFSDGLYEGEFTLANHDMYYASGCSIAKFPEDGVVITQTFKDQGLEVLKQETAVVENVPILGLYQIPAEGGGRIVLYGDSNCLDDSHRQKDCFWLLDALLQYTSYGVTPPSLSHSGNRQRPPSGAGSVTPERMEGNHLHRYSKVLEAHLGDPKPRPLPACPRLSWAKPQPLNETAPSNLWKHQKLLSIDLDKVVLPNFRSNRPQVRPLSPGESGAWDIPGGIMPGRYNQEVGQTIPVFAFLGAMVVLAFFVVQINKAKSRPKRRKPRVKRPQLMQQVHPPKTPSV

[3] = target: T2, BTMD-SKI-1 (Homo sapiens, UniProt Q14703); assay: pH optimum and calcium dependence of peptide cleavage by BTMD-SKI-1; type: biochemical
T2 sequence (Q14703 187-997 limits assumed): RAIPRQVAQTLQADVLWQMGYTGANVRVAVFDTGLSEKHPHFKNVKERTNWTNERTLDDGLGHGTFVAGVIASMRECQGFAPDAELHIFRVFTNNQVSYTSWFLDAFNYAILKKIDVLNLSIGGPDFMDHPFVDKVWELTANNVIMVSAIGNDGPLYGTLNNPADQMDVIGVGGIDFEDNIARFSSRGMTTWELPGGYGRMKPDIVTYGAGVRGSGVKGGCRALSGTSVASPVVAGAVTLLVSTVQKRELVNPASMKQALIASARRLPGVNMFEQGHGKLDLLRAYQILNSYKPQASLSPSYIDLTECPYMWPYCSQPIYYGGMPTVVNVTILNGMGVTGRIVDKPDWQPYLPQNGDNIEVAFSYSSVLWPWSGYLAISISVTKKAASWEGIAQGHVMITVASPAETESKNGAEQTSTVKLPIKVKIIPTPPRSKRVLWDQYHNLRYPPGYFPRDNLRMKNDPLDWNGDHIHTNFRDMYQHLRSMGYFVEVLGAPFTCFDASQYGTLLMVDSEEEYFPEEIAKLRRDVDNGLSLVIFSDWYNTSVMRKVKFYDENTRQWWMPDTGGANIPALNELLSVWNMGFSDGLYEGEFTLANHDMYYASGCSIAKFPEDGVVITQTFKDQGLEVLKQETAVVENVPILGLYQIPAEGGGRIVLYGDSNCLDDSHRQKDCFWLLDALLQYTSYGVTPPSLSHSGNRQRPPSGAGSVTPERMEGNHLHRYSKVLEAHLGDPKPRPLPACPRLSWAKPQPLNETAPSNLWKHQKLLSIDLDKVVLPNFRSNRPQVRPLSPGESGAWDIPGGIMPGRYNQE
T2 sequence (Q14703 17-137 partner limits assumed): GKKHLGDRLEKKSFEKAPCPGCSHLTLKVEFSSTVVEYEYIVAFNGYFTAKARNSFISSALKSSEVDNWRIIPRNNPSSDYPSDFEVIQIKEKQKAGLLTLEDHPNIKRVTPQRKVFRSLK
Procedure: pH Optimum, Calcium-Dependence and Inhibitor Profile—The protocols used were essentially the same as reported previously (13). Stocks of the buffer described above were adjusted to pH 5.0–8.5 at 0.5 unit increments by addition of either acetic acid or sodium hydroxide. In order to investigate the calcium requirement of SKI-1, increasing concentrations of Ca^2+-acetate were used ranging from 0 to 10 mM.

[4] = target: cystatin
[5] = target: T3, peptide I, hproBDNF(50-63)
T3 chain: KAGSRGLTSLADTF

[6] = target: T4, peptide II, hSREBP-2(504-530)
T4 chain: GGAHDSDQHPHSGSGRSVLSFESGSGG

[7] = target: T5, peptide III, hSKI-1(174-191)
T5 chain: WHATGRHSSRRLLRAIPR

[8] = target: T6, peptide IV, hSKI-1 (174-188+LE)
T6 chain: WHATGRHSSRRLLRALE

[9] = target: T7, peptide IX, hSKI-1 (128-142)
T7 chain: PQRKVFRSLKYAESD

[10] = target: T8, peptide V, hSKI-1 (182-188+LE)
T8 chain: SRRLLRALE

[11] = target: T9, peptide VI, hSKI-1 (156-172)
T9 chain: WQSSRPLRRASLSLGSG

[12] = target: T10, peptide VII, hSKI-1 (187-201)
T10 chain: RAIPRQVAQTLQADV

[13] = target: T11, peptide VIII, hSKI-1 (128-136)
T11 chain: PQRKVFRSL

[14] = target: soya bean trypsin inhibitor
[15] = COS-7 cells co-expressing proBDNF and SKI-1

Question: Which “production of the 14 kDa BDNF” value [1] does the source give for α1-antitrypsin Portland [α1-PDX] here?
Answer: selectively blocks the production of the 14 kDa BDNF

Question: And the “level of the 28 kDa BDNF product” value [2]?
Answer: neither α1-PIT nor α1-PDX affect the level of the 28 kDa product

Question: Which “production of the 14 kDa BDNF” value [1, 15] does the source give for `CNc1ccc2oc(C[C@H]3O[C@@]4(CC[C@H]3C)O[C@H]([C@H](C)C(=O)c3ccc[nH]3)[C@H](C)C[C@H]4C)nc2c1C(=O)O` [Peptide A23187] here?
Answer: abolished

Question: And the “level of the 28 kDa BDNF product” value [2, 15]?
Answer: abolished

Question: How did the activity retained ([3]; at pH 5.0) turn out when KAGSRGLTSLADTF [I] was run?
Answer: about 30%

Question: What about the activity retained ([3]; at pH 8.5) of the same molecule?
Answer: ~55%

B1: BTMD-SKI-1 (protein)
chain: RAIPRQVAQTLQADVLWQMGYTGANVRVAVFDTGLSEKHPHFKNVKERTNWTNERTLDDGLGHGTFVAGVIASMRECQGFAPDAELHIFRVFTNNQVSYTSWFLDAFNYAILKKIDVLNLSIGGPDFMDHPFVDKVWELTANNVIMVSAIGNDGPLYGTLNNPADQMDVIGVGGIDFEDNIARFSSRGMTTWELPGGYGRMKPDIVTYGAGVRGSGVKGGCRALSGTSVASPVVAGAVTLLVSTVQKRELVNPASMKQALIASARRLPGVNMFEQGHGKLDLLRAYQILNSYKPQASLSPSYIDLTECPYMWPYCSQPIYYGGMPTVVNVTILNGMGVTGRIVDKPDWQPYLPQNGDNIEVAFSYSSVLWPWSGYLAISISVTKKAASWEGIAQGHVMITVASPAETESKNGAEQTSTVKLPIKVKIIPTPPRSKRVLWDQYHNLRYPPGYFPRDNLRMKNDPLDWNGDHIHTNFRDMYQHLRSMGYFVEVLGAPFTCFDASQYGTLLMVDSEEEYFPEEIAKLRRDVDNGLSLVIFSDWYNTSVMRKVKFYDENTRQWWMPDTGGANIPALNELLSVWNMGFSDGLYEGEFTLANHDMYYASGCSIAKFPEDGVVITQTFKDQGLEVLKQETAVVENVPILGLYQIPAEGGGRIVLYGDSNCLDDSHRQKDCFWLLDALLQYTSYGVTPPSLSHSGNRQRPPSGAGSVTPERMEGNHLHRYSKVLEAHLGDPKPRPLPACPRLSWAKPQPLNETAPSNLWKHQKLLSIDLDKVVLPNFRSNRPQVRPLSPGESGAWDIPGGIMPGRYNQEHHHHHH
Question: Which Hydrolysis of SREBP-2 peptide (% of control) at 0.01 mM cystatin [4] does the source give for B1 here?
Answer: 100 % of control

Question: What about the Km(app) [5] of the same molecule?
Answer: 169 µM

Question: And the Vmax(app) [5]?
Answer: 0.4 nmol/h

Question: And the Vmax(app)/Km(app) [5]?
Answer: 0.002 h^-1L^-1

Question: What about the “cleavage of synthetic peptide (RP-HPLC, MALDI-TOF)” value [5] of the same molecule?
Answer: The expected cleavages were confirmed and did not occur using WT-/empty vector-derived media

Question: What about the Km(app) [6] of the same molecule?
Answer: 124 µM

Question: And the Vmax(app) [6]?
Answer: 0.5 nmol/h

Question: And the Vmax(app)/Km(app) [6]?
Answer: 0.004 h^-1L^-1

Question: What about the “cleavage of synthetic peptide (RP-HPLC, MALDI-TOF)” value [6] of the same molecule?
Answer: The expected cleavages were confirmed and did not occur using WT-/empty vector-derived media

Question: What about the “cleavage of synthetic peptide (RP-HPLC, mass spectrometry)” value [7] of the same molecule?
Answer: the only one with detectable cleavage by SKI-1-containing concentrated medium ... was peptide III

Question: What about the Km(app) [8] of the same molecule?
Answer: 17 µM

Question: What about the Vmax(app) [8] of the same molecule?
Answer: 0.4 nmol/h

Question: What about the Vmax(app)/Km(app) [8] of the same molecule?
Answer: 0.023 h^-1L^-1

Question: What about the “Vmax(app)/Km(app) relative to peptides I and II” value [8] of the same molecule?
Answer: 5-10-fold higher than those obtained with peptides I and II

Question: And the “cleavage of synthetic peptide” value [8]?
Answer: this change significantly improved the processing of these peptides

Question: And the “cleavage of synthetic peptide at K137↓” value [9]?
Answer: the PQRKVFRSLK^137↓YAESD (SEQ. ID. NO. 45) cleavage was only seen in SKI-1-containing medium

Question: What about the Km(app) [10] of the same molecule?
Answer: 109 µM

Question: And the Vmax(app) [10]?
Answer: 1.1 nmol/h

Question: And the Vmax(app)/Km(app) [10]?
Answer: 0.01 h^-1L^-1

Question: And the “catalytic efficiency relative to peptide IV” value [10]?
Answer: caused a 4-fold reduction in catalytic efficiency

Question: What about the “cleavage of synthetic peptide” value [10] of the same molecule?
Answer: this change significantly improved the processing of these peptides

Question: What about the difference in Vmax(app)/Km(app) between peptides IV and V [10] of the same molecule?
Answer: 2 fold

Question: And the “cleavage of synthetic peptide” value [11]?
Answer: ^1No cleavage detected even with a 10-fold excess of enzyme.

Question: What about the “cleavage of synthetic peptide” value [12] of the same molecule?
Answer: ^1No cleavage detected even with a 10-fold excess of enzyme.

Question: What about the “cleavage of synthetic peptide” value [13] of the same molecule?
Answer: ^2Cleavage detected but not attributable to SKI-1.

Question: And the Hydrolysis of SREBP-2 peptide (% of control) at 0.5 mg/ml SBTI [14]?
Answer: 100 % of control
